This is an account of results in the supplement of paper PMC9170038.

The data set has as its system MS2 coat protein. Description: apparent KD of MS2 coat protein; designed switch direction (-1 OFF switch, 1 ON switch): -1; higher = weaker reporter binding. In a few lines:
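RNA switches sharing common flanks were transcribed by stalled E. coli RNA polymerase on Illumina chips. A doubling series of SNAP-549-labelled MS2 coat protein, from 0.7 or 1.5 nM to 3 µM, was applied in Tris-HCl pH 7.5 buffer with KCl, MgCl2, BSA, DTT, tRNA and Tween-20. Each step lasted 0.8–1.5 h at the bottom of the series and 10–20 min at the top. Normalised cluster fluorescence was curve-fitted, giving apparent KD as the per-design median over clusters.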

Setting [1] is: Eterna round: R95, input ligand: FMN 200 uM.
Setting [2] is: Eterna round: R95, input ligand: microRNA oligo, concentration not stated.
[3] abbreviates: Eterna round: R95, input ligand: none.
The mark [4] stands for this setting: input ligand: microRNA oligo, concentration not stated.

Take “UCAAGCUUUAAGCGCGUGAACAUGAGGAUCACCCAUGUAUUUCGGGUUUUGGUUUUUUGUAUGGGUUCUUGUCUUAU [JR_SWV3TOV1_Sub096] (puzzle: Sensor v3, turn-off variant 1)”: the “apparent KD of MS2 coat protein” value under setting [1] amounted to 0.0392 µM, the “apparent KD of MS2 coat protein” value under setting [2] amounted to 0.0192 µM and the “apparent KD of MS2 coat protein” value under setting [3] was 0.0418 µM.
With “GCGGACUAGAACGUGAGUUCUGAGACAUGAGGAUCACCCAUGUAGGAUAUCGAUUCGAAACGAAUCGAGAAGGGCAUAGUCCGC [JL denovo 11] (Eterna round: R96, puzzle: Exclusion NG 3)”, the “apparent KD of MS2 coat protein” value was 0.0152 µM (input ligand: FMN 200 uM), 0.0147 µM under setting [4] and 0.0177 µM (input ligand: none).
Consider “GGCCCUAAGGUCAGAUUCACAAGCUUUUUGCUCGUUUUAACAUGAGGAUCACCCAUGUCUAGUGGAUUUGAUCCUUA [Sensor v3, turn-off variant 2 (MOD of Indiso v.7)] (puzzle: Sensor v3, turn-off variant 2)”, for which the “apparent KD of MS2 coat protein” value turned out to be 0.0218 µM under setting [1], 0.02 µM under setting [2] and 0.0189 µM under setting [3].
“AGUACUAACACGUCGGUGUUAGUACAAUAAGCUUGUGAAACAUGAGGAUCACCCAUGUCCUCAUAAGCUCGUCUUAU [salish99_TOv2_r3_080] (Eterna round: R96, puzzle: Sensor v3, turn-off variant 2)”: the “apparent KD of MS2 coat protein” value (input ligand: FMN 200 uM) was determined as 0.0164 µM, the “apparent KD of MS2 coat protein” value under setting [4] stood at 0.492 µM and the “apparent KD of MS2 coat protein” value (input ligand: none) was found to be 0.0178 µM.
In the case of “GACGAGUGAGGAUAUGGUGAGUAGUGCCUGAGCGCUGCUCACCAGAAGGCACAUGAGGAUCACCCAUGUAUGUC [Mat - Exclusion 4 - Mod of JL - D11] (puzzle: Exclusion 4)”, under setting [2], the “apparent KD of MS2 coat protein” value is 0.0132 µM.
Same read-out and setting: the result for “GGCUAGUCAGGAUAUACGAACAUGUCAAAAGACGUGAAGGGACAUGAGGAUCACCCAUGUAGAAGGGACUAGCA [salish99_ex2_r3_001] (puzzle: Exclusion 2)” reads 0.0235 µM.
Turning to “GGAUGUCUAAAGGAUAUGCUGGAUUAAUAUCUGGCAGAAGGUUGGACAUGAGGAUCACCCAUGUAAAUUCUGCC [Omei Ex6 A11] (Eterna round: R97, puzzle: Exclusion 6)”, the “apparent KD of MS2 coat protein” value was 0.0246 µM (input ligand: FMN 200 uM) and 0.0173 µM (input ligand: none).
In the case of “GUCUACGCAGGAUAUAUCCCUCAGGACAUGAGGAUCACCCAUGUCUCCUUAUGCCUUCCCAUAGAAGGGCGUAGAA [Eternabot (L1) Solution 82] (Eterna round: R97, puzzle: Exclusion 5)”, the “apparent KD of MS2 coat protein” value by setting is: (input ligand: FMN 200 uM) 0.0126 µM; (input ligand: none) 0.0132 µM.
As for “UUUUUAUAUGAAGGAUAUACUUAACAUGAGGAUCACCCAUGUGGUGUUGUGAGUGAGUGAGUUUAGUAGAAGGUCAAGUACUUU [JMF's solution 37] (Eterna round: R96, puzzle: Exclusion NG 2)”, the “apparent KD of MS2 coat protein” value reads like this: (input ligand: FMN 200 uM) 0.614 µM; under setting [4], 0.38 µM; (input ligand: none) 0.574 µM.
As to “UGUGCGUAUGUGAGGAUAUGCUGGUCCUUGGAUCGGCAGAAGGCACAUGAGGAUCACCCAUGUGGUGUCGUACC [salish99_Bmod_ex4_075] (puzzle: Brourd's mod of Exclusion 4)”, the “apparent KD of MS2 coat protein” value under setting [2] came out at 0.154 µM.
Take “AGCCCUGCAGGAUAUGCCCGGGAUAACAUGAGGAUCACCCAUGUGACCGGUUGUUAGACUGCAGAAGGGCAUGGGA [salish99_ex5_r4_302] (Eterna round: R97, puzzle: Exclusion 5)”: the “apparent KD of MS2 coat protein” value is, setting by setting: (input ligand: FMN 200 uM) 0.0148 µM; (input ligand: none) 0.0122 µM.
Consider “GGAUAUAACGUAGGAUAUCAGAGAAACAGACGAUGAGAAGGACGACAUGAGGAUCACCCAUGUGAUCUAUCAAUAUUAUACAUG [Prohibition 98 - Jieux - Exclusion NG 1] (Eterna round: R96, puzzle: Exclusion NG 1)”, for which the “apparent KD of MS2 coat protein” value by setting is: (input ligand: FMN 200 uM) 0.874 µM; under setting [4], 0.434 µM; (input ligand: none) 0.712 µM.
With “UACCGGCGGACCGAAGCUUUUUGCUUGUCUUAUACUACAACAUGAGGAUCACCCAUGUGGUGGUGGUCCGUUGUAGU [JL ViennaUCT Bitein mod 2] (puzzle: Sensor v3, turn-off variant 2)”, the “apparent KD of MS2 coat protein” value was 0.0544 µM under setting [1], 0.0178 µM under setting [2] and 0.0473 µM under setting [3].
As for “UGAUCUAGCGGAGGAUAUACAUGAGGAUCACCCAUGUAUAGGCUAUGACCGUAGUCGUGGAACAUGUAGAAGGCCGCUAGAUCU [JL ENG2 3.79] (Eterna round: R96, puzzle: Exclusion NG 2)”, the “apparent KD of MS2 coat protein” value by setting is: (input ligand: FMN 200 uM) 0.569 µM; under setting [4], 0.0403 µM; (input ligand: none) 0.0459 µM.
For “ACAAGCUUAGGUAAUCAUAACAUGAGGAUCACCCAUGUUCGUCUUAUAAAAAUAAAAAUAAAAAACAAAAAAUAAAA [Sensor V2: 65] (Eterna round: R96, puzzle: Sensor v2, turn-off variant)” the same measures were 0.0333 µM, 0.0706 µM and 0.0338 µM.
For “CAGUACUGAGGAUAUACAUGAGGAUCACCCAUGUGUUCCAGCUAGGAUACUAGCAAAAGUAGAAGGCAGUACUG [salish99_ex3_r3_095x] (Eterna round: R96, puzzle: Exclusion 3)”, the “apparent KD of MS2 coat protein” value under setting [4] amounted to 0.0209 µM.
“CGUUCGCGAGGAUAUGCAUUCGAGUCCACUACGUGUCUGGGACUUGAGGAUCACCCAAGUAGAAGGCGCCUCCC [salish99_ex2_r4_649] (Eterna round: R97, puzzle: Exclusion 2)”: the “apparent KD of MS2 coat protein” value runs as follows: (input ligand: FMN 200 uM) 0.0713 µM; (input ligand: none) 0.0479 µM.
Regarding “GAUCAUGCAGGAUAUACAGUAACCAUGAAAACAUGGAUCAAACAUGAGGAUCACCCAUGUAGAAGGGCAUGAUC [Omei Ex2 A22] (Eterna round: R97, puzzle: Exclusion 2)”, the “apparent KD of MS2 coat protein” value was 0.0388 µM (input ligand: FMN 200 uM) and 0.0182 µM (input ligand: none).
Regarding “GUAAAGGUAGGAUAUACGAAGAAAAAGGGUAGAAGAAGAACACAUGAGGAUCACCCAUGUAGAAGGACCAAAUG [Mat - Exclusion 2 - Mod of my Tesla design - D4] (puzzle: Exclusion 2)”, the “apparent KD of MS2 coat protein” value is, setting by setting: under setting [1], 0.0639 µM; under setting [2], 0.0248 µM; under setting [3], 0.0285 µM.
Consider “GUGCUACAUGAGGAUCACCCAUGUCAGGAUAUGCGAAUUUCAUCAAAAGAUGAAAUUUGCAGAAGGGACAACAC [Omei Ex1 A18] (Eterna round: R97, puzzle: Exclusion 1)”, for which the “apparent KD of MS2 coat protein” value came to 0.0882 µM (input ligand: FMN 200 uM) and 0.0385 µM (input ligand: none).
Consider “UAAUAAUAGUGAGGAUAUAGUUAUUAUAAUAUACUAGAAGGUACACAUGAGGAUCACCCAUGUUUUAUAAUUUGUAAUUUAAAU [4th something] (Eterna round: R96, puzzle: Exclusion NG 1)”, for which the “apparent KD of MS2 coat protein” value under setting [4] was found to be 0.0184 µM.
As for “UUAAUUCUGAUUCUUGAAAUACAUGAGGAUCACCCAUGUUCACAGGAUAUUGAUUAUGUUAGUUACAAGAAGGGUGUAUCAUAU [JR_ExcNG3_Sub038] (Eterna round: R96, puzzle: Exclusion NG 3)”, the “apparent KD of MS2 coat protein” value is 0.0389 µM (input ligand: FMN 200 uM), 0.0268 µM under setting [4] and 0.0306 µM (input ligand: none).
For the sequence “CCGGAAAUACAGGAUAUAGGAGUAAAUAUACUCCUAGAAGGGUAUACAUGAGGAUCACCCAUGUGUCCUACCGG [Fiskers Ex 6 - 67] (puzzle: Exclusion 6)”, the “apparent KD of MS2 coat protein” value under setting [2] came to 0.0234 µM.
